Assay results reported in paper PMC8037807, “The Effect of Oxidized Dopamine on the Structure and Molecular Chaperone Function of the Small Heat-Shock Proteins, αB-Crystallin and Hsp27” (International Journal of Molecular Sciences, 2021).

Experiments:
[1] = molecular target: the molecule itself; assay: cross-linking; 15 μM αBc or Hsp27 incubated with 15 or 75 μM DA in 50 mM phosphate, 150 mM NaCl, pH 7.4, 24 h, 37 °C, aerobic; excess DAox removed (10 kDa filter); SDS-PAGE with DTT and boiling
[2] = molecular target: the molecule itself; assay: negative-stain transmission electron microscopy; 30 μM αBc or Hsp27 incubated with 0 or 150 μM DAox; particle diameters measured
[3] = molecular target: the molecule itself; assay: cross-linking; lysine-dimethylated and non-methylated sHsps reacted with a 0, 1, 5, 7.5, 10 or 20 molar excess of DA, 37 °C, 24 h, 50 mM phosphate buffer, pH 7.4; SDS-PAGE, monomer band quantified

B1: oxidized dopamine-modified αB-crystallin (natural protein, human, UniProt P02511 1-175, looked up)
chain: MDIAIHHPWIRRPFFPFHSPSRLFDQFFGEHLLESDLFPTSTSLSPFYLRPPSFLRAPSWFDTGLSEMRLEKDRFSVNLDVKHFSPEELKVKVLGDVIEVHGKHEERQDEHGFISREFHRKYRIPADVDPLTITSSLSSDGVLTVNGPRKQVSGPERTIPITREEKPAVTAAPKK
modifications: modified and covalently cross-linked by oxidized dopamine (DAox); lysine residues involved in the cross-links; sites not mapped
notes: αB-crystallin (HspB5), human small heat-shock protein; monomeric subunit mass 20.2 kDa; same protein as m1; Made at several molar ratios of αBc to DA (1:1, 1:5, 1:10, 1:20, 1:30); All ratios are kept as one molecule; the ratio is named in each row; also called αBc:DAox; DAox-modified αBc
B1: binds [1].

B2: αB-crystallin (natural protein, human, UniProt P02511 1-175, looked up)
chain: B1 chain
notes: αB-crystallin (HspB5), human small heat-shock protein; monomeric subunit mass 20.2 kDa; Lys174 and Lys175 at the extreme C-terminus; Heterogeneous large oligomer in solution; also called HspB5; native αBc; source: expressed and purified as previously described [9,40,41]
B2: binds [2].

B3: methylated αBc reacted with DAox (natural protein, human, UniProt P02511 1-175, looked up)
chain: B1 chain
modifications: dimethylation of all lysine residues (and the amino terminus), confirmed by mass spectrometry; then modified by oxidized dopamine (DAox)
notes: αB-crystallin (HspB5), human small heat-shock protein; same protein as m1; Reacted with a 0, 1, 5, 7.5, 10 or 20 molar excess of DA; also called lysine-dimethylated αBc
B3: binds [3].
